Test results from doi:10.1101/2024.04.06.588386.

Experiments:
[1] = target: SEBV1-2A2 (2A2 protein of Sebokele virus 1) (Sebokele virus 1 (SEBV1)); assay: crystal structure
[2] = target: SEBV1-2A2 (2A2 protein of Sebokele virus 1) (Sebokele virus 1 (SEBV1)); assay: SEC-MALS
[3] = target: SEBV1-2A2 (2A2 protein of Sebokele virus 1) (Sebokele virus 1 (SEBV1)); assay: SEC-SAXS
[4] = target: LV4-2A2 (full-length 2A2 protein of Ljungan virus 4, strain 64-7855) (Ljungan virus 4 (strain 64-7855)); assay: SEC-MALS
[5] = target: LV4-2A2 (full-length 2A2 protein of Ljungan virus 4, strain 64-7855) (Ljungan virus 4 (strain 64-7855)); assay: SEC-SAXS
[6] = target: LV4-2A2^1-122 (C-terminally truncated 2A2 protein of Ljungan virus 4) (Ljungan virus 4 (strain 64-7855)); assay: crystal structure
[7] = target: LV4-2A2^1-122 (C-terminally truncated 2A2 protein of Ljungan virus 4) (Ljungan virus 4 (strain 64-7855)); assay: SEC-MALS
[8] = target: HPeV3-2A (2A^H/NC protein of human parechovirus 3) (Human parechovirus 3 (HPeV3)); assay: crystal structure
[9] = target: HPeV3-2A (2A^H/NC protein of human parechovirus 3) (Human parechovirus 3 (HPeV3)); assay: SEC-MALS
[10] = target: HPeV3-2A (2A^H/NC protein of human parechovirus 3) (Human parechovirus 3 (HPeV3)); assay: SEC-SAXS
[11] = target: LV1-2A2 (2A2 protein of Ljungan virus 1, isolate 87-012) (Ljungan virus 1 (isolate 87-012)); assay: crystal structure

**Q.** What does the source list for “SEBV1-2A2 (2A2 protein of Sebokele virus 1) (natural protein)”?
**A.** stoichiometry N [1]: 2; stoichiometry N [2]: 2; stoichiometry N [3]: 2

**Q.** Which stoichiometry N [4] does the source give for “LV4-2A2 (full-length 2A2 protein of Ljungan virus 4, strain 64-7855) (natural protein)” here?
**A.** 2

**Q.** And the stoichiometry N [5]?
**A.** 2

**Q.** For “LV4-2A2^1-122 (C-terminally truncated 2A2 protein of Ljungan virus 4) (domain or fragment)”, which stoichiometry N [6] is on record?
**A.** 2

**Q.** And the stoichiometry N [7]?
**A.** 2

**Q.** For “HPeV3-2A (2A^H/NC protein of human parechovirus 3) (natural protein)”, which stoichiometry N [8] is on record?
**A.** 4

**Q.** What about the stoichiometry N [9] of the same substance?
**A.** 2

**Q.** And the stoichiometry N [10]?
**A.** 2

**Q.** With “LV1-2A2 (2A2 protein of Ljungan virus 1, isolate 87-012) (natural protein)” as the substance, how does the stoichiometry N [11] read?
**A.** 2
